Source: publication PMC9522936, “Regain flood adaptation in rice through a 14-3-3 protein OsGF14h” (Nature Communications, 2022)

T1: His-OsGF14h^SN9816 (rice (Oryza sativa), japonica variety …, UniProt Q2R1D5 1-230)
T1 construct: also called Hap1; source: E. coli Rosetta (DE3), purified (Ni NTA beads)
T1 sequence (looked up): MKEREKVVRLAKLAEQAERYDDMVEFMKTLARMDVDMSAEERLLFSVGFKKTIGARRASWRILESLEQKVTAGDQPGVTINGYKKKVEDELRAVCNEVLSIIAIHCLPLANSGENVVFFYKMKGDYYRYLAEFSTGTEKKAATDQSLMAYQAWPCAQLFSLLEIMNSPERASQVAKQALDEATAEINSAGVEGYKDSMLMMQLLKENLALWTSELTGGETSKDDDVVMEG

T2: OsHOX3 (Oryza sativa, UniProt Q9XH38 1-229)
T2 sequence: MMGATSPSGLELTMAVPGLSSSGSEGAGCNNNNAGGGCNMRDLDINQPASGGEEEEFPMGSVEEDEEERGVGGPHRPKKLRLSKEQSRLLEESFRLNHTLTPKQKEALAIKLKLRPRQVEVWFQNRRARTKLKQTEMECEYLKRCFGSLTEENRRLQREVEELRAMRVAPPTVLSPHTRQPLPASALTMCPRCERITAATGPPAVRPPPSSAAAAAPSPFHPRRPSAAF


Columns and labels:
His-OsGF14h^SN9816 = biological target: T1, His-OsGF14h^SN9816; assay: pull-down; GST-OsHOX3 or GST-OsVP1 as bait on GST beads, equal quantities of recombinant proteins in GST pull-down buffer at 4 °C overnight, His-OsGF14h detected by anti-His; details: both partners purified
OsHOX3 = biological target: T2, OsHOX3; assay: EMSA; without OsGF14h; Chemiluminescent EMSA Kit GS009 (Beyotime) per manufacturer; 6% native polyacrylamide gel; unlabeled competitor 10x and 20x; buffer, pH and temperature not stated; details: protein: recombinant; tags: GST (pGEX4T-1; N-terminal); chain copies: 2; label: biotin 3' end; blunt

Binder | binding result (His-OsGF14h^SN9816) | binding result (OsHOX3)
GST-OsHOX3 (natural protein, rice, UniProt Q0JKX1 1-229, looked up, HD-Zip family transcription factor OsHOX3, rice; source: E. coli Rosetta (DE3), purified (GST beads)) MMGATSPSGLELTMAVPGLSSSGSEGAGCNNNNAGGGCNMRDLDINQPASGGEEEEFPMGSVEEDEEERGVGGPHRPKKLRLSKEQSRLLEESFRLNHTLTPKQKEALAIKLKLRPRQVEVWFQNRRARTKLKQTEMECEYLKRCFGSLTEENRRLQREVEELRAMRVAPPTVLSPHTRQPLPASALTMCPRCERITAATGPPAVRPPPSSAAAAAPSPFHPRRPSAAF | binds | –
OsPYL5 promoter HD-ZIP3 probe (55 bp) (dsDNA) DNA 1: AATATAAAACGGTGGGAGTATTAATGATTACATAGTCAATTTTATGTTTGCATTA DNA 2: TAATGCAAACATAAAATTGACTATGTAATCATTAATACTCCCACCGTTTTATATT | – | binds
